Test results as given in patent publication US20220332804A1 (CSL INNOVATION, published 2022).
Each block holds one binder with its values, some of them ahead of it.

Assays:
human complement C2 [1] = target: T1, human complement C2 (human, UniProt P06681 21-752); assay: SPR, mAb captured, C2 analyte, MHAs buffer, pH 7.3
T1 construct: Recombinant full-length human C2 with C-terminal 8x His tag, purified from Expi293F supernatant; also called human C2; huC2
T1 sequence: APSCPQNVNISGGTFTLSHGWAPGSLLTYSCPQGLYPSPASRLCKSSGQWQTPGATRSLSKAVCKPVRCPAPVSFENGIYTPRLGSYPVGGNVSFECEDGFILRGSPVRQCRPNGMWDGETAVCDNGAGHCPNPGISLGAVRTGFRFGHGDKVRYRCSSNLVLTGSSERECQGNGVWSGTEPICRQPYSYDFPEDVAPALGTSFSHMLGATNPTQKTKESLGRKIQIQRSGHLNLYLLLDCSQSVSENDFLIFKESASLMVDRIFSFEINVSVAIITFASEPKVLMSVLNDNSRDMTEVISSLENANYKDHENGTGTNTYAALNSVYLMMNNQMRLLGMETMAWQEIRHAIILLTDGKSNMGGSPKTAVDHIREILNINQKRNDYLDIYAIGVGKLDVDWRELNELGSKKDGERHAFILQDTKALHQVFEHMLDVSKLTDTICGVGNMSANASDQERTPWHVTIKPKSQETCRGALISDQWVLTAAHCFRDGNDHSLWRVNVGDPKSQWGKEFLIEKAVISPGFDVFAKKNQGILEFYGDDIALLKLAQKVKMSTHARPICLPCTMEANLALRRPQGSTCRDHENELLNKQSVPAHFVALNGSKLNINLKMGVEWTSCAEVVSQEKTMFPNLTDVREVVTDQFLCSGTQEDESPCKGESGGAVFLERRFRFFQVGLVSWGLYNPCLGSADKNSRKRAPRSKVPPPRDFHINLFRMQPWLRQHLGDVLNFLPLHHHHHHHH
Method: (§1) Surface plasmon resonance (SPR, Biacore) was used for all binding affinity analyses. In brief, goat anti-human IgG was directly immobilised onto the carboxymethyl dextran surface of CM5 sensorchips to approximately 12,000 RU using standard NHS/EDC chemistry at pH 5. The immobilised antibody surface was pre-conditioned with ten injections of polyclonal human IgG (Privigen 60 s) prepared at 1 μg/mL. Ligands (anti-C2 mAbs) were captured at the beginning of each cycle as described below. An adjacent spot or flow cell in which only Polyclonal IgG was capture was used as a reference surface. The goat anti-human IgG Fc antibody surface was regenerate in 100 mM H3PO4, injected for 45 seconds at the end of each cycle. Experiments were performed at 37° C. and the flow rate of each experiment was kept constant at 30 μL/min.
(§2) This buffer contains ammonium sulfate instead of sodium chloride.

human complement C2 [2] = target: T1, human complement C2; assay: SPR, mAb captured, C2 analyte, MHAs buffer, pH 6.0, steady state
Method: as §1, §2

human complement C2 [3] = target: T1, human complement C2; assay: SPR, mAb captured, C2 analyte, HBS-EP, pH 7.3
Method: as §1
(§3) The pH dependent anti-C2 antibodies and their germlined versions were tested for their affinity to C2 at pH 7.3 (neutral pH) and pH 6.0 (early endosome pH) using the SPR methods described above in HBS-EP buffer.

cynomolgus monkey C2 [4] = target: T2, cynomolgus monkey C2 (cynomolgus monkey, UniProt G8F3W0 21-752); assay: SPR, mAb captured, cyno C2 analyte, pH 6.0
T2 construct: also called cyno C2
T2 sequence: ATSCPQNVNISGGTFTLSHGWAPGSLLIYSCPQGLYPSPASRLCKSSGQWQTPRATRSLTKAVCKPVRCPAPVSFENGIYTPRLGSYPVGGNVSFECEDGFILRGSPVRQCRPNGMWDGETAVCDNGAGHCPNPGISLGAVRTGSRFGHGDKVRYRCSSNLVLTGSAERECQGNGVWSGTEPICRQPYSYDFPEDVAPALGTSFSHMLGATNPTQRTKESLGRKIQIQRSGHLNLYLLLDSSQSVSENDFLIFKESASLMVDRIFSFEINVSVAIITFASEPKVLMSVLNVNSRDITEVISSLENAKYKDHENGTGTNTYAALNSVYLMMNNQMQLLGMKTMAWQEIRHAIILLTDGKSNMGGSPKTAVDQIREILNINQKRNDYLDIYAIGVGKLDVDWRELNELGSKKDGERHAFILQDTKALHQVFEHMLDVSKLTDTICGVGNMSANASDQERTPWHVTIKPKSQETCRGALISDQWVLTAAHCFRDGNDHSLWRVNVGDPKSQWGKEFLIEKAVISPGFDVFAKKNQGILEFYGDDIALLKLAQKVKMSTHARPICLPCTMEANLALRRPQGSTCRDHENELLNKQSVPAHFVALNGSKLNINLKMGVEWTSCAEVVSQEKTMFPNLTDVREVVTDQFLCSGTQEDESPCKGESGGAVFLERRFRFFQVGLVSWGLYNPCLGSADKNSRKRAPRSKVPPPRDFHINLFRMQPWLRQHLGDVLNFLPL
Method: as §1
(§4) In addition to human C2, the pH dependent anti-C2 antibodies were also tested for their ability to bind to C2 from other mammalian species using the SPR methods described above in order to identify suitable surrogate species for in vivo testing. The antibodies were tested for binding at neutral pH against C2 from cynomolgus monkeys, mice, dogs, rabbits, rats, pigs, and sheep.

human complement C2 [5] = target: T1, human complement C2; assay: cell-based or functional assay
cynomolgus monkey C2 [6] = target: T2, cynomolgus monkey C2; assay: cell-based or functional assay
cynomolgus monkey C2 [7] = target: T2, cynomolgus monkey C2; assay: cell-based or functional assay; remark: listed apart in the source
cynomolgus monkey C2 [8] = target: T2, cynomolgus monkey C2; assay: SPR, mAb captured, cyno C2 analyte, pH 7.3
Method: as §1, §4

human complement C2 [9] = target: T1, human complement C2; assay: SPR, mAb captured, C2 analyte, HBS-EP, pH 6.0
Method: as §1, §3

human complement C2 [10] = target: T1, human complement C2; assay: SPR, mAb captured, C2 analyte, MHAs buffer, pH 5.8, steady state
Method: as §1, §2

human complement C2 [11] = target: T1, human complement C2; assay: cell-based or functional assay; remark: listed apart in the source
mouse C2 = target: T3, mouse C2 (mouse, UniProt P21180 19-760, limits assumed); assay: SPR, mouse C2, pH 7.3; VWB = very weak binding, KD not determined
T3 sequence (looked up): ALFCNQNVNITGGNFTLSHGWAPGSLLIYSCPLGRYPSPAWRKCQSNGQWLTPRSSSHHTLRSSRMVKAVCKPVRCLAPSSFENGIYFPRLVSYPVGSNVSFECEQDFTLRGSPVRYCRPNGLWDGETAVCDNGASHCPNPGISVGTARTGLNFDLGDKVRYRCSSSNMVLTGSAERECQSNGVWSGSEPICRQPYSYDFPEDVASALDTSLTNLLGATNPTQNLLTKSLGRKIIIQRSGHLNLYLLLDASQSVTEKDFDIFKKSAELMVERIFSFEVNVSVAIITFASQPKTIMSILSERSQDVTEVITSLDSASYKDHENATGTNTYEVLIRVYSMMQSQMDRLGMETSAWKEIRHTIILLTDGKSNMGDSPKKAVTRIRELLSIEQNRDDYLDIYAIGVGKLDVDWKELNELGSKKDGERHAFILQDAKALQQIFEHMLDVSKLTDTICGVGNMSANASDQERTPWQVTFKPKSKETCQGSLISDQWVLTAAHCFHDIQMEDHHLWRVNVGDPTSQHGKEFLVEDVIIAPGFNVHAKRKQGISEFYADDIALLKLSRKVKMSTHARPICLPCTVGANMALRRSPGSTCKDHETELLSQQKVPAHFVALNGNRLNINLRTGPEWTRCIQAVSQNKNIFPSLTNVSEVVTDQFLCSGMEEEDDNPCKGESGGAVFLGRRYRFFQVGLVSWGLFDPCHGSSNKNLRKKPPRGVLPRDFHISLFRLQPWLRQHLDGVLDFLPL

B1: RF16-242 (antibody, V domains shown)
VH: EVQLLQSGAEVKKPGESLKISCKGSGYSFTSYWIGWVRQMPGKGLEWMGIIYPGDSDTRYSPSFQGQVTISADKSISTAYLQWSSLKASDTAMYYCARRGHYGDYFDYWGQGTLVTVSS
VL: SYELTQPPSVSVSPGQTARITCSGDALPKKYAYWYHQKSGQAPVLVIYEDRRRPSEIPERFSGSSSGTMATLTITGAQVEDEGVYFCYSRDRAGNQRVFGGGTQLTVLG
- Kd (human complement C2 [1]): 460 nM
- Kd (human complement C2 [2]): 11600 nM
- Kd (human complement C2 [3]): 7 nM
- Kd (cynomolgus monkey C2 [4]): 134 nM
- IC50, inhibition of human classical pathway (hemolysis assay) (human complement C2 [5]): 55.4 nM
- IC50, inhibition of cyno classical pathway (hemolysis assay) (cynomolgus monkey C2 [6]): 642 nM
- IC50, inhibition of cynomolgus classical complement pathway (Wieslab assay) (cynomolgus monkey C2 [7]): 8.97 nM
- IC50, inhibition of cynomolgus lectin complement pathway (Wieslab assay) (cynomolgus monkey C2 [7]): 91.1 nM
- Kd (cynomolgus monkey C2 [8]): 5.2 nM
- Kd (human complement C2 [9]): 16 nM
- Kd (human complement C2 [10]): 32000 nM
- IC50, inhibition of human classical complement pathway (Wieslab assay) (human complement C2 [11]): 9.19 nM
- IC50, inhibition of human lectin complement pathway (Wieslab assay) (human complement C2 [11]): 2.91 nM

B2: RF16-242G (antibody, V domains shown)
VH: EVQLVQSGAEVKKPGESLKISCKGSGYSFTSYWIGWVRQMPGKGLEWMGIIYPGDSDTRYSPSFQGQVTISADKSISTAYLQWSSLKASDTAMYYCARRGHYGDYFDYWGQGTLVTVSS
VL: SYELTQPPSVSVSPGQTARITCSGDALPKKYAYWYQQKSGQAPVLVIYEDRRRPSGIPERFSGSSSGTMATLTISGAQVEDEADYYCYSRDRAGNQRVFGGGTQLTVLG
notes: Germlined version of RF16-242
- Kd (human complement C2 [1]): 558 nM
- Kd (human complement C2 [2]): 12000 nM
- Kd (human complement C2 [3]): 6.7 nM
- binding result (mouse C2): binds
- Kd (cynomolgus monkey C2 [4]): 132 nM
- IC50, inhibition of human classical pathway (hemolysis assay) (human complement C2 [5]): 80.3 nM
- IC50, inhibition of cyno classical pathway (hemolysis assay) (cynomolgus monkey C2 [6]): 302 nM
- IC50, inhibition of cynomolgus classical complement pathway (Wieslab assay) (cynomolgus monkey C2 [7]): 19.3 nM
- IC50, inhibition of cynomolgus lectin complement pathway (Wieslab assay) (cynomolgus monkey C2 [7]): 275 nM
- Kd (cynomolgus monkey C2 [8]): 4.4 nM
- Kd (human complement C2 [9]): 14 nM
- Kd (human complement C2 [10]): 47000 nM
- IC50, inhibition of human classical complement pathway (Wieslab assay) (human complement C2 [11]): 26.3 nM
- IC50, inhibition of human lectin complement pathway (Wieslab assay) (human complement C2 [11]): 3.19 nM

B3: RF16-214G (antibody, V domains shown)
VH: EVQLLESGGGLVQPGGSLRLSCAASGFTFSWYQMMWVRQAPGKGLEWVSRIYPSGGGTAYADSVKGRFTISRDNSKNTLYLQMNSLRAEDTAVYYCARDAGYGDNWGQGTLVTVSS
VL: SYELTQPPSVSVSPGQTASITCSGDKLGEKYASWYQQKPGQSPVLVIYQDRKRPSGIPERFSGSNSGNTATLTISGTQAMDEADYYCQAWDTRAVVFGGGTKLTVLG
- Kd (human complement C2 [1]): 176 nM
- Kd (human complement C2 [2]): 1480 nM
- Kd (human complement C2 [3]): 25.1 nM
- binding result (mouse C2): binds
- Kd (cynomolgus monkey C2 [4]): 111 nM
- IC50, inhibition of human classical pathway (hemolysis assay) (human complement C2 [5]): 337 nM
- IC50, inhibition of cyno classical pathway (hemolysis assay) (cynomolgus monkey C2 [6]): 396 nM
- IC50, inhibition of cynomolgus classical complement pathway (Wieslab assay) (cynomolgus monkey C2 [7]): 135 nM
- IC50, inhibition of cynomolgus lectin complement pathway (Wieslab assay) (cynomolgus monkey C2 [7]): 223 nM
- Kd (cynomolgus monkey C2 [8]): 41.5 nM
- Kd (human complement C2 [9]): 53.9 nM
- Kd (human complement C2 [10]): 3340 nM
- IC50, inhibition of human classical complement pathway (Wieslab assay) (human complement C2 [11]): 20.3 nM
- IC50, inhibition of human lectin complement pathway (Wieslab assay) (human complement C2 [11]): 6.4 nM

B4: RF16-226G (antibody)
heavy: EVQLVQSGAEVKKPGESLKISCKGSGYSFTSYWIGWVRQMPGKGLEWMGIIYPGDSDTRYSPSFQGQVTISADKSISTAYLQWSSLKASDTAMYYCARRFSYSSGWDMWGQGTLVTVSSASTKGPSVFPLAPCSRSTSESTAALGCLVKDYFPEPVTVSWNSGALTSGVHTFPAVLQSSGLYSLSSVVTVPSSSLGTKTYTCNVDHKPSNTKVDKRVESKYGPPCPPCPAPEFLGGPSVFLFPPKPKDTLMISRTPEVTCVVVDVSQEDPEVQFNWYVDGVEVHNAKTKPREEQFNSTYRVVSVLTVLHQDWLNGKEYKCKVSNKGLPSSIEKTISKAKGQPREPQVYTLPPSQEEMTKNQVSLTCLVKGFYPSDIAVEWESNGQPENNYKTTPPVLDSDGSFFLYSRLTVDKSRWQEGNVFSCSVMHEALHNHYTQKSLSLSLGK
light: SYELTQPPSVSVSPGQTARITCSGDALTSKYVAWYQQKSGQAPVLVIYEDTRRPSGIPERFSGSSSGTMATLTISGAQVEDEADYYCYSTDASGHQRVFGGGTKLTVLGQPKAAPSVTLFPPSSEELQANKATLVCLISDFYPGAVTVAWKADSSPVKAGVETTTPSKQSNNKYAASSYLSLTPEQWKSHRSYSCQVTHEGSTVEKTVAPTECS
- Kd (human complement C2 [1]): 45.6 nM
- Kd (human complement C2 [2]): 1900 nM
- Kd (human complement C2 [3]): 10 nM
- binding result (mouse C2): binds
- Kd (cynomolgus monkey C2 [4]): 114 nM
- IC50, inhibition of human classical pathway (hemolysis assay) (human complement C2 [5]): 230 nM
- IC50, inhibition of cyno classical pathway (hemolysis assay), mean of three experiments (cynomolgus monkey C2 [6]): 176 nM
- IC50, inhibition of cynomolgus classical complement pathway (Wieslab assay) (cynomolgus monkey C2 [7]): 8.24 nM
- IC50, inhibition of cynomolgus lectin complement pathway (Wieslab assay) (cynomolgus monkey C2 [7]): 66.5 nM
- Kd (cynomolgus monkey C2 [8]): 4.7 nM
- Kd (human complement C2 [9]): 128 nM
- Kd (human complement C2 [10]): 4060 nM
- IC50, inhibition of human classical complement pathway (Wieslab assay) (human complement C2 [11]): 5.58 nM
- IC50, inhibition of human lectin complement pathway (Wieslab assay) (human complement C2 [11]): 3.25 nM

The next lines start with results.

- Kd (human complement C2 [3]): 18.9 nM
- binding result (mouse C2): binds
- Kd (cynomolgus monkey C2 [4]): 87.3 nM
- IC50, inhibition of cynomolgus classical complement pathway (Wieslab assay) (cynomolgus monkey C2 [7]): 8.73 nM
- IC50, inhibition of cynomolgus lectin complement pathway (Wieslab assay) (cynomolgus monkey C2 [7]): 42.9 nM
- Kd (cynomolgus monkey C2 [8]): 35.7 nM
- Kd (human complement C2 [9]): 13 nM
- IC50, inhibition of human classical complement pathway (Wieslab assay) (human complement C2 [11]): 1.64 nM
- IC50, inhibition of human lectin complement pathway (Wieslab assay) (human complement C2 [11]): 1.62 nM
B5: RF16-191G (antibody, V domains shown)
VH: EVQLLESGGGLVQPGGSLRLSCAASGFTFSKYWMGWVRQAPGKGLEWVSSIYSSGGWTYYADSVKGRFTISRDNSKNTLYLQMNSLRAEDTAVYYCARRPRSFSGSYYRAFDIWGQGTMVTVSS
VL: DIQMTQSPSSLSASVGDRVTITCRASQSITDYLNWYQQKPGKAPKLLIYAASSLQSGVPSRFSGSGSGTDFTLTISSLQPEDFATYYCQQSYSSSITFGQGTRLDLKR
- IC50, inhibition of human classical pathway (hemolysis assay) (human complement C2 [5]): 94 nM
- IC50, inhibition of cyno classical pathway (hemolysis assay) (cynomolgus monkey C2 [6]): 213 nM

- Kd (human complement C2 [3]): 506 nM
- binding result (mouse C2): binds
- IC50, inhibition of cynomolgus classical complement pathway (Wieslab assay) (cynomolgus monkey C2 [7]): 14100 nM
- IC50, inhibition of cynomolgus lectin complement pathway (Wieslab assay) (cynomolgus monkey C2 [7]): 5780 nM
- Kd (cynomolgus monkey C2 [8]): 485 nM
- IC50, inhibition of human classical complement pathway (Wieslab assay) (human complement C2 [11]): 2030 nM
- IC50, inhibition of human lectin complement pathway (Wieslab assay) (human complement C2 [11]): 33.2 nM
B6: RF16-203G (antibody, V domains shown)
VH: EVQLLESGGGLVQPGGSLRLSCAASGFTFSRYYMMWVRQAPGKGLEWVSSIGSSGGTTNYADSVKGRFTISRDNSKNTLYLQMNSLRAEDTAVYYCAKGGMVLGVVNIWGQGTLVTVSS
VL: SYELTQPPSVSVSPGQTASITCSGDKLGEKYVSWYQQKPGQSPVLVIYQDIKRPSGIPERFSGSNSGNTATLTISGTQAMDEADYYCQTWGTGGIQVFGGGTKLTVLG
